# Measured values: the Immune Epitope Database (IEDB)
# What was measured:
# [1] = target: HLA-B*08:01; experiment: IEDB peptide-MHC binding, purified MHC/competitive/radioactivity; filed as Kd, often an IC50 or EC50 that approximates it; ≥ and ≤ were set here for values at or beyond the usual limits of such assays
# [2] = target: HLA-A*24:03; experiment: IEDB peptide-MHC binding, purified MHC/direct/fluorescence; filed as Kd, often an IC50 or EC50 that approximates it; ≥ and ≤ were set here for values at or beyond the usual limits of such assays
# [3] = target: HLA-A*02:02; experiment: IEDB peptide-MHC binding, purified MHC/competitive/radioactivity; filed as Kd, often an IC50 or EC50 that approximates it; ≥ and ≤ were set here for values at or beyond the usual limits of such assays; details: source organism: SARS coronavirus Tor2
# [4] = target: HLA-A*30:02; experiment: as above; details: source organism: SARS coronavirus Tor2
# [5] = target: HLA-A*02:03; experiment: as above; details: source organism: SARS coronavirus Tor2
# [6] = target: HLA-A*29:02; experiment: as above; details: source organism: SARS coronavirus Tor2
# [7] = target: HLA-A*02:06; experiment: as above; details: source organism: SARS coronavirus Tor2
# [8] = target: HLA-A*01:01; experiment: as above; details: source organism: SARS coronavirus Tor2
# [9] = target: HLA-A*23:01; experiment: as above; details: source organism: SARS coronavirus Tor2
# [10] = target: HLA-A*24:02; experiment: as above; details: source organism: SARS coronavirus Tor2
# [11] = target: HLA-A*26:01; experiment: as above; details: source organism: SARS coronavirus Tor2
# [12] = target: HLA-A*30:01; experiment: as above; details: source organism: Dengue virus 1 Brazil/97-11/1997
# [13] = target: HLA-B*07:02; experiment: as above
# [14] = target: HLA-A*11:01; experiment: IEDB peptide-MHC binding, purified MHC/direct/fluorescence; filed as Kd, often an IC50 or EC50 that approximates it; ≥ and ≤ were set here for values at or beyond the usual limits of such assays; details: source organism: Rickettsia prowazekii
# [15] = target: HLA-A*69:01; experiment: as above; details: source organism: Rickettsia prowazekii
# [16] = target: HLA-B*27:05; experiment: as above; details: source organism: Rickettsia prowazekii
# [17] = target: HLA-B*07:02; experiment: as above; details: source organism: Rickettsia prowazekii
# [18] = target: HLA-B*08:01; experiment: as above; details: source organism: Rickettsia prowazekii
# [19] = target: HLA-B*44:02; experiment: as above; details: source organism: Rickettsia prowazekii
# [20] = target: HLA-B*15:01; experiment: as above; details: source organism: Rickettsia prowazekii
# [21] = target: HLA-A*03:01; experiment: as above; details: source organism: Rickettsia prowazekii
# [22] = target: HLA-B*40:01; experiment: as above; details: source organism: Rickettsia prowazekii
# [23] = target: HLA-A*01:01; experiment: as above; details: source organism: Rickettsia prowazekii
# [24] = target: HLA-A*31:01; experiment: as above; details: source organism: Rickettsia prowazekii
# [25] = target: HLA-A*02:01; experiment: as above; details: source organism: Rickettsia prowazekii
# [26] = target: HLA-A*26:01; experiment: as above; details: source organism: Rickettsia prowazekii
# [27] = target: HLA-B*58:01; experiment: as above; details: source organism: Rickettsia prowazekii
# [28] = target: HLA-B*51:01; experiment: IEDB peptide-MHC binding, purified MHC/competitive/radioactivity; filed as Kd, often an IC50 or EC50 that approximates it; ≥ and ≤ were set here for values at or beyond the usual limits of such assays; details: source organism: Dengue virus 2 16681-PDK53
sequence,measurement,setting,value
FVMFGFCYL,Kd,[1]; source organism: Vaccinia virus WR,0.865 µM
KYLPNGDYI,Kd,[2]; source organism: Vibrio parahaemolyticus,0.0129 µM
NMLRIMASL,Kd,[3],0.0034 µM
same,Kd,[4],≥ 100 µM
same,Kd,[5],0.0375 µM
same,Kd,[6],≥ 36.9 µM
same,Kd,[7],0.05 µM
same,Kd,[8],≥ 26.3 µM
same,Kd,[9],10.9 µM
same,Kd,[10],≥ 32.2 µM
same,Kd,[11],18.2 µM
RSRWSRKML,Kd,[12],0.0904 µM
same,Kd,[13]; source organism: Dengue virus 1 Brazil/97-11/1997,0.0931 µM
LTIPPTAGIL,Kd,[1]; source organism: Dengue virus 2 Jamaica/1409/1983,1.1 µM
HRRDLRLASM,Kd,[1]; source organism: Dengue virus 4 Philippines/H241/1956,0.0112 µM
IYSAEFKNY,Kd,[14],≥ 20 µM
same,Kd,[15],≥ 20 µM
same,Kd,[16],≥ 20 µM
same,Kd,[2]; source organism: Rickettsia prowazekii,1.41 µM
same,Kd,[17],≥ 20 µM
same,Kd,[18],≥ 20 µM
same,Kd,[19],≥ 20 µM
same,Kd,[20],20 µM
same,Kd,[21],≥ 20 µM
same,Kd,[22],≥ 20 µM
same,Kd,[23],≥ 20 µM
same,Kd,[24],≥ 20 µM
same,Kd,[25],≥ 20 µM
same,Kd,[26],≥ 20 µM
same,Kd,[27],≥ 20 µM
SPIIDKKGKV,Kd,[13]; source organism: Dengue virus 2 16681-PDK53,0.582 µM
same,Kd,[28],≥ 69.6 µM
